From US8722622B2, “FGF21 conjugates and anti-diabetic uses thereof” (COVX Technologies Ireland, Limited, priority 2010, dated 2014)
“And” between values parts separate entries of the source, which are not always exact repeats. Equal values may be shown once.

Assays:
[1] = Intrinsic tryptophan fluorescence thermal unfolding; type: physicochemical
Source text: Thermal stability of the two candidates was also investigated using intrinsic protein tryptophan fluorescence by measuring midpoint of transition (Tm-FL) of temperature-induced unfolding. This assay monitors changes in tertiary structure semi-quantitatively upon unfolding induced by high temperature.

[2] = Differential scanning calorimetry (DSC); type: physicochemical; conditions: temperature-induced unfolding
Description: Thermal stability of the two candidates was investigated using DSC by measuring midpoint of transition (Tm) of temperature-induced unfolding. The Tm value of the major unfolding transition for h38C2 was 73.5° C.

[3] = test system: Glut1 mRNA expression in differentiated 3T3-L1 adipocytes; experiment: Glut1 Taqman assay; type: cell-based; conditions: differentiated 3T3-L1 adipocytes, 6 hrs; read-out: EC50 in Glut1 Taqman assay
Description: Differentiated 3T3-L1 adipocytes were used to measure the Glut1 mRNA expression by qPCR method. Overnight serum starved day 10-14 differentiated 3T3-L1 adipocytes were treated with compounds for 6 hrs. Total RNA was extracted from these cells, and Glut1 and GAPDH mRNA expression was measured using a Quantitect Probe RT-PCR kit and running a quantitative real time PCR reaction in a Taqman machine (Applied Biosystems®). The bioactivity of the compounds was determined by a fold change in Glut1 mRNA levels normalized by the GAPDH mRNA levels from each sample. EC50 values as measurements of the potency of the compounds were obtained from the dose response curves in the assay.
3T3-L1 adipocytes were seeded at day 8 in 24-well tissue culture plates (Falcon®, Cat#353047), and incubated in DMEM complete medium (10% FBS, 2 mM L-glutamine, 1% P/S) at 37° C., 5% CO2. […] The medium was aspirated, and then RNA extracted from the cells using the RNeasy mini Kit according to the manufacturer's instructions. RNA was measured at A260 nm using the Spectramax® Plus spectrophotometer.

ob/ob mice = experiment: Mouse efficacy in ob/ob mice (OGTT, body weight, liver, gene expression); type: in vivo; conditions: ob/ob mice; for mean glucose AUC % during OGTT: single dose 10 mg/ml as printed (FIG. 6B)
Description: The efficacy of FGF21 antibodies conjugates was evaluated in two murine obese insulin resistant models—ob/ob mice and high-fat diet-induced obese mice. For both models, male mice (6-8 weeks of age for ob/ob, 12-14 weeks of age for DIO with high-fat diet initiated at 6 weeks of age) were housed 2-4/cage and FGF21 antibody conjugates were administered by SC injection. Body weight was measured daily in the morning. Glucose tolerance was assessed by oral glucose tolerance test. Briefly, mice were fasted for 4-5 hrs in the morning of the day of testing. A basal blood sample was obtained and blood glucose levels were determined using a portable glucometer. Following basal sample, glucose was administered by oral gavage, and blood samples were drawn from 15 to 120 mins thereafter.
For […] expression, frozen visceral WAT samples collected from the in vivo efficacy studies were homogenized. Total RNA was extracted from the tissue homogenates, and Glut1 and GAPDH mRNA expression was measured using a Quantitect Probe RT-PCR kit and running a quantitative real time PCR reaction in a Taqman machine (Applied Biosystems). The effect of treatment was determined by a fold change in Glut1 mRNA levels normalized by the GAPDH mRNA levels from each sample.

[4] = design: species or system Swiss-Webster mice; conditions: mouse, in vivo
Description: The PK of FGF21 antibody conjugates were examined in mice after IV or SC administration. […] Antibody conjugates concentrations in serum were determined using an ELISA which captured the FGF21 portion of the antibody conjugates through a monoclonal anti-hFGF21 antibody bound to a 96-well plate. FGF21 antibody conjugates bound to the plate were detected through an anti-hFc monoclonal antibody, and concentrations were determined using a standard curve of the PK dosing solution diluted into serum-containing assay buffer. SC bioavailability was calculated as the ratio of the area-under the curve (AUC) of the SC serum concentration profile divided by the AUC of the IV serum concentration profile.

[5] = test system: Differentiated 3T3-L1 adipocytes; experiment: Glucose uptake assay; type: cell-based
Description: Differentiated 3T3-L1 adipocytes were treated with compounds in the absence of serum for 24 hrs. Cells were then incubated with ^14C-2-deoxyglucose for 1 hr and glucose uptake into the cells was quantitated in Wallac 1450 MicroBeta (Trilux) instrument. Glucose uptake was expressed in counts per min (CPM). EC50 values as measurements of the potency of the compounds were obtained from the dose response curves in the assay.

[6] = type: physicochemical
Description: FGF21ΔH-D79C mutant protein was produced in E. coli and purified as described above. FGF21ΔH-D79C was expressed from 1 L of culture. A 150 mg inclusion body was obtained and 85 mg purified protein was obtained, representing a 60% yield. To test the stability of FGF21ΔH-D79C as well as FGF21ΔH (SEQ ID NO:2), freshly thawed samples were kept at 4° C. over seven days, and examined for their integrity by RP-HPLC, SEC_HPLC, Ellman assay and SDS-PAGE on day 0, 3 and 7. […] PBS (pH7.4) and 20 mM Tris-HCl 50 mM NaCl (pH7.5) made no significant difference of stability of FGF21ΔH-D79C.
It is possible that the solubility of FGF21ΔH-D79C may be reduced at pH6.0. The stability of FGF21ΔH-D79C was examined upon multiple freeze/thaw cycles. The proteins were repeated to freeze (−80 C) and thaw (4° C.) 9 times.

In the case of “h38C2: humanized aldolase catalytic antibody h38C2 IgG1, SEQ ID NOS:25 and 26”, the “Tm-FL of the major unfolding transition” value [1] is reported as “approximately 74.1 °C” and the “Tm of the major unfolding transition (DSC)” value [2] is reported as 73.5 °C.

B1: Ab-L1-FGF21ΔH-H125C: FGF21ΔH-H125C combined with L1 at H125C and conjugated with h38C2 (conjugate, listed as Homo sapiens)
chain: PIPDSSPLLQFGGQVRQRYLYTDDAQQTEAHLEIREDGTVGGAADQSPESLLQLKALKPGVIQILGVKTSRFLCQRPDGALYGSLHFDPEACSFRELLLEDGYNVYQSEAHGLPLHLPGNKSPHRDPCPRGPARFLPLPGLPPALPEPPGILAPQPPDVGSSDPLSMVGPSQGRSPSYAS
modifications: conjugated via L1 linker to h38C2 antibody
For B1, the EC50 [3] was 3.2 nM, the “body weight gain” value (ob/ob mice) was “reduce body weight gain” and the “glucose tolerance” value (ob/ob mice) was “improve glucose tolerance”. The “Mean Glucose AUC (% of vehicle control) during OGTT” value (ob/ob mice; single SC dose 1 mg/kg (FIGS. 4A, 4B)) was 87 % of vehicle control, the “Mean Glucose AUC (% of vehicle control) during OGTT” value (ob/ob mice; single SC dose 3 mg/kg (FIGS. 4A, 4B)) was 66 % of vehicle control and the “Cumulative body weight change, mean body weight” value (ob/ob mice; single dose 10 mg/kg (FIG. 6A)) was 0.8 g. For the same molecule, the “mean glucose AUC % during OGTT” value (ob/ob mice) was 51%, the “Tm-FL of the major unfolding transition” value [1] was ~79.7 °C and the “Tm of the major unfolding transition (DSC)” value [2] was 79 °C. It also gave an SC bioavailability ([4]; sc) of 67%.

B2: FGF21ΔH-L86C: FGF21 cysteine mutant, SEQ ID NO:14 (protein, listed as Homo sapiens)
chain: PIPDSSPLLQFGGQVRQRYLYTDDAQQTEAHLEIREDGTVGGAADQSPESLLQLKALKPGVIQILGVKTSRFLCQRPDGALYGSCHFDPEACSFRELLLEDGYNVYQSEAHGLPLHLPGNKSPHRDPAPRGPARFLPLPGLPPAPLEPPGILAPQPPDVGSSDPLSMVGPSQGRSPSYAS
Molecule B2 has an EC50 ([5]; unconjugated protein, n in brackets) of 62 nM.

B3: FGF21ΔH-K56R-K59R-K69-K122R: FGF21 lysine mutant, SEQ ID NO:20 (protein, listed as Homo sapiens)
chain: PIPDSSPLLQFGGQVRQRYLYTDDAQQTEAHLEIREDGTVGGAADQSPESLLQLRALRPGVIQILGVKTSRFLCQRPDGALYGSLHFDPEACSFRELLLEDGYNVYQSEAHGLPLHLPGNRSPHRDPAPRGPARFLPLPGLPPAPLEPPGILAPQPPDVGSSDPLSMVGPSQGRSPSYAS
For B3, the EC50 [3] was 1.3 nM and the EC50 ([5]; 3T3-L1 adipocytes, 24 hrs) was 5.2 nM.

B4: FGF21ΔH-D79C: FGF21 cysteine mutant, SEQ ID NO:13 (protein, listed as Homo sapiens)
chain: PIPDSSPLLQFGGQVRQRYLYTDDAQQTEAHLEIREDGTVGGAADQSPESLLQLKALKPGVIQILGVKTSRFLCQRPCGALYGSLHFDPEACSFRELLLEDGYNVYQSEAHGLPLHLPGNKSPHRDPAPRGPARFLPLPGLPPALPEPPGILAPQPPDVGSSDPLSMVGPSQGRSPSYAS
With B4 the “stability upon freeze/thaw cycles” value [6] was “Neither sample showed any difference”, the “fraction oxidized at pH 6.0” value ([6]; 4° C., three-day incubation) was “more than half” and the “stability at neutral pH 7.4” value ([6]; pH 7.4) was “stable”. The EC50 [3] was 2.1 nM, the “Cumulative body weight change, mean body weight” value (ob/ob mice; single dose 2 mg/kg (FIG. 6A)) was 2.1 g and the “mean glucose AUC % during OGTT” value (ob/ob mice) was 54%.

B5: FGF21ΔH-K56R-K59-K69R-K122R: FGF21 lysine mutant, SEQ ID NO:19 (protein, listed as Homo sapiens)
chain: PIPDSSPLLQFGGQVRQRYLYTDDAQQTEAHLEIREDGTVGGAADQSPESLLQLRALKPGVIQILGVRTSRFLCQRPDGALYGSLHFDPEACSFRELLLEDGYNVYQSEAHGLPLHLPGNRSPHRDPAPRGPARFLPLPGLPPAPLEPPGILAPQPPDVGSSDPLSMVGPSQGRSPSYAS
With B5 the EC50 [3] was 0.6 nM and the EC50 ([5]; 3T3-L1 adipocytes, 24 hrs) was 0.9 nM.

B6: FGF21ΔH-K56-K59R-K69R-K122: FGF21 lysine mutant, SEQ ID NO:21 (protein, listed as Homo sapiens)
chain: PIPDSSPLLQFGGQVRQRYLYTDDAQQTEAHLEIREDGTVGGAADQSPESLLQLRALRPGVIQILGVRTSRFLCQRPDGALYGSLHFDPEACSFRELLLEDGYNVYQSEAHGLPLHLPGNKSPHRDPAPRGPARFLPLPGLPPAPLEPPGILAPQPPDVGSSDPLSMVGPSQGRSPSYAS
B6 showed an EC50 [3] of 2.6 nM and an EC50 ([5]; 3T3-L1 adipocytes, 24 hrs) of 1.7 nM.

B7: FGF21ΔH-K56-K59R-K69R-K122R: FGF21 lysine mutant, SEQ ID NO:18 (protein, listed as Homo sapiens)
chain: PIPDSSPLLQFGGQVRQRYLYTDDAQQTEAHLEIREDGTVGGAADQSPESLLQLKALRPGVIQILGVRTSRFLCQRPDGALYGSLHFDPEACSFRELLLEDGYNVYQSEAHGLPLHLPGNRSPHRDPAPRGPARFLPLPGLPPAPLEPPGILAPQPPDVGSSDPLSMVGPSQGRSPSYAS
With B7 the EC50 [3] was 0.9 nM and the EC50 ([5]; 3T3-L1 adipocytes, 24 hrs) was 5.5 nM.

B8: FGF21ΔH-Knull-H1K: FGF21 lysine-null mutant with H1K, SEQ ID NO:23 (protein, listed as Homo sapiens)
chain: KPIPDSSPLLQFGGQVRQRYLYTDDAQQTEAHLEIREDGTVGGAADQSPESLLQLRALRPGVIQILGVRTSRFLCQRPDGALYGSLHFDPEACSFRELLLEDGYNVYQSEAHGLPLHLPGNRSPHRDPAPRGPARFLPLPGLPPALPEPPGILAPQPPDVGSSDPLSMVGPSQGRSPSYAS
In the case of B8, the EC50 [3] is reported as 6.4 nM and 4.3 nM, the IV half-life ([4]; iv) is reported as 16 h and the SC bioavailability ([4]; sc) is reported as 51%. For the same molecule, the SC half-life ([4]; sc) was 11 h.
